Laboratory results taken from patent US20140322216A1 (University of Pennsylvania, published 2014).

Legend:
[1] = target: T1, full-length glycosylated recombinant hGPC3 protein expressed in a murine myeloma cell line (human, UniProt P51654 25-559, limits assumed); test: direct ELISA on rhGPC3, lower coat (open circles; key prints '0.5mg/ml', legend says 0.5 ug/ml)
T1 construct: Bought protein; also called rhGPC3; full length hGPC3 protein expressed by mammalian cells
Protocol: (§1) FIG. 4A depicts the results of immunoblot analysis of binding of scFv to rhGPC3. The antigens including rhGPC3 and GST protein were spotted onto cellulose membrane (10 ng/each). After the blocking step the membrane were incubated with the scFvs antibody in room temperature for 1 h. The binding of scFv to antigen was detected by incubation with mouse anti-V5 mAb following by infrared dye IR680-labeled anti-mouse antibodies. PBS was used as negative control. FIG. 4B depicts results of direct ELISA for affinity determination of scFv 3E11. Two different concentrations of rhGPC3 protein (0.5 and 1.0 ug/ml) were coated and incubated with serial diluted scFv 3E11. For detection, mouse-sourced anti-V5 mAb following HRP-conjugated anti-mouse antibody and SureBlue substrate (measured at 450 nm) was used. FIG. 4C depicts EC50 values for 5 candidate scFvs determined by direct ELISA, Assays were performed twice separately for each scFv.
(§2) After three washing steps with PBS/0.1% Tween-20 (PBST), 300 ul per well of blocking solution (2% milk in PBS pH 7) was added for 2 h at room temperature then washed three tinmes with PBST. […] OD450 was measured using a BioRad 680 microplate reader. […]

[2] = target: T1, full-length glycosylated recombinant …; test: direct ELISA on rhGPC3 coated at 0.5 ug/ml
Protocol: as §1
(§3) After three washing steps with PBS/0.1% Tween-20 (PBST), 300 ul per well of blocking solution (2% milk in PBS pH 7) was added for 2 h at room temperature then washed three tinmes with PBST. Candidate scFv starting at 100 ug/ml were added with serial dilutions, incubated for Ih at room temperature followed by three washing steps with PBST, scFv binding was detected by adding anti-V5 HRP (Invitrmgen), washing ×4 with PBST, washing ×1 with PBS, then adding 50 ul/well of TMB peroxidase substrate (KPL, Gaithersburg Md.) plus peroxidase substrate solution B at 1:1 ratio, then the reaction was stopped using 50 ul of 0.5M H₂SO₄. OD450 was measured using a BioRad 680 microplate reader. For determination of functional affinity, half maximal binding concentration (EC50) was calculated with non-linear regression curve fit algorithm using the software program PRISM (GraphPad Software, San Diego, Calif.). rhGPC3 expressed in a murine myeloma cell line which was commercially obtained from R&D Systems (Minneapolis Minn.).

[3] = target: GST protein (UniProt P08515 1-218 = GST); test: dot blot, 10 ng GST per spot, scFv detected with anti-V5 mAb and IR680 anti-mouse
Protocol: as §1

[4] = target: T1, full-length glycosylated recombinant …; test: ELISA on rhGPC3 precoated at 1 ug/ml; drawn table headed 'Table 1. Kd of scFv candidates', column EC50 (nM)
[5] = target: T1, full-length glycosylated recombinant …; test: direct ELISA, rhGPC3 coated at 1 ug/ml; rhGPC3 at 1 ug/ml
Protocol: as §1, §2

[6] = target: T1, full-length glycosylated recombinant …; test: direct ELISA on rhGPC3 coated at 1 ug/ml
Protocol: as §1, §3

[7] = target: T1, full-length glycosylated recombinant …; test: direct ELISA, rhGPC3 coated at 0.5 ug/ml; rhGPC3 at 0.5 ug/ml
Protocol: as §1, §2

Chain of GST protein (P08515 whole entry): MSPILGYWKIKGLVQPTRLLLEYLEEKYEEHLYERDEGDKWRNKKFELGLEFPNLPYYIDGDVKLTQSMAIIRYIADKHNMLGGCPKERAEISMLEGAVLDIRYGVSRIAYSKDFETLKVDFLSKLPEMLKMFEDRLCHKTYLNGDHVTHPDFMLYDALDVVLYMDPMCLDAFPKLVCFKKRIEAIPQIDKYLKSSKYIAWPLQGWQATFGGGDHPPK
T1 sequence (P51654 25-559 limits assumed): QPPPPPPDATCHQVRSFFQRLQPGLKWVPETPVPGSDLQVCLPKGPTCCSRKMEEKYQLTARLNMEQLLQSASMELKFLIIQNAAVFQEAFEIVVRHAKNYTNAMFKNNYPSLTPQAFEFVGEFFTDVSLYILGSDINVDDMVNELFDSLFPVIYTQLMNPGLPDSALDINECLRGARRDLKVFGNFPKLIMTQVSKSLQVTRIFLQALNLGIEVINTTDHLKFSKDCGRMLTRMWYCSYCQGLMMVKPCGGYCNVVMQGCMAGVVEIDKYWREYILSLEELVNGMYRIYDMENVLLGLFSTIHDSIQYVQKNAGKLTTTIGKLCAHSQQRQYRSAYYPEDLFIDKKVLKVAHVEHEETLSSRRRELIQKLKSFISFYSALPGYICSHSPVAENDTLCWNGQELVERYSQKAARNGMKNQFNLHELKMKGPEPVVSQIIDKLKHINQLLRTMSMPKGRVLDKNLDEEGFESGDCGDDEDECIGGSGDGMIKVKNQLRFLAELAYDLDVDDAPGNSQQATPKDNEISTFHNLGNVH

B1: scFv 3E11 (scFv, V domains shown)
VH: QVQLVQSGGGVVQPGRSLRLSCAASGFTFSSYGLHWVRQAPGKGLEWVAAISYDGSKKYYADSVKGRLTISRDNSKNTLYLQMNSLSPEDTALYFCARGWFVEPLSWGQGTLVTVSS
VL: not shown
notes: Human scFv secreted by yeast (p416-BCCR vector), one polypeptide; purified on nickel/anti-HIS and detected with anti-V5, so it carries His and V5 tags
With B1 the “EC50 (read off the curve)” value [1] was ~10 nM, the EC50 [2] was 12 nM and the binding result [3] was “no binding”. For the same binder, the EC50 [4] was 12 nM, the EC50 [5] was 14 nM and the EC50 [6] was 11.1 nM. For the same binder, the EC50 [7] was 11 nM.

B2: scFv 3D8 (scFv, V domains shown)
VH: QVQLVQSGGGLAQPGGSLRLSCAASGSSFSTFVLSWVRQTPGKGLQWVSTISGSGTSTYYADSVKGRFTVSRDNAKNTQYLQMNSLRAEDTAIYYCARHKSFGVQWLWGQGALVVRLL
VL: VHIVMTQSPLSLPVTLGQPASISCWSSQSLVYGDGNTYLNWFQQRPGQSPRRLIYKVSNRDSGVPDRFSGSGSGTDFTLKISRVEAEDVGVYYCMQGTHWPPGTFGGGTKLEIK
notes: Human scFv secreted by yeast, one polypeptide with His and V5 tags
Binder B2 has an EC50 [2] of 106 nM and an EC50 [6] of 94.7 nM.

B3: scFv 4G5 (scFv, V domains shown)
VH: QVQLQESGLGLVKPSETLSLTCAVSGYSITSGYYWGWIRQTPGKGLEWIGRIYYGGSTHYNPSLQSRVTISVDTAKNQFSLKLSSVTAADTAVYYCARDRNYQSLSGYCLDYWGQGKVVTVSS
VL: EIVLTQSPGTLSVSPGERATLSCRASQSVSSHIAWYQQKPGQAPRLLIHGASTRATGVPARFSGSGSGTEFTLTISSLQSEDFAVYYCQQYNKWPPEYTFGQGTKLEIK
notes: as for B2
With B3 the EC50 [2] was 38.8 nM and the binding result [3] was “no binding”.

B4: scFv 2G9 (scFv, V domains shown)
VH: QVQLQESGPGLVKPSETLSLSCTVSGGSISSSSYYWAWIRQPPGKGLEWIGNIYYSGSTYYNPSLKSRVTISVDTSKNQFSLKLSSVTAADTAVYYCARFPLIRGYRYRYDEYWGQGTLVTVSS
VL: DIVMTQSPLSLPVTPGEAASISCRSSQSLLHRDGYHYLNWFLQKPGQSPQLLIYLGSNRASGVPDRFSGSGSGTDFTLKISRVEAEDVGVYYCMQAPQTPRTLLGQGTKLEIK
notes: as for B2
With B4 the binding result [3] was “no binding” and the EC50 [6] was 111 nM.
